Data taken from patent US20220064329A1 (Novo Nordisk, published 2022).
Where a chain is given by its changes, count along the chain named. In names and notes the source's numbering stands.

T1: recombinant human activated Factor VII (FVIIa) (human, UniProt P08709 61-212; P08709 213-466, ten glutamate residues of the Gla domain may be gamma-carboxylated)
T1 construct: chains tethered by a disulfide bond; also called Factor VIIa; rFVIIa
T1 sequence 1: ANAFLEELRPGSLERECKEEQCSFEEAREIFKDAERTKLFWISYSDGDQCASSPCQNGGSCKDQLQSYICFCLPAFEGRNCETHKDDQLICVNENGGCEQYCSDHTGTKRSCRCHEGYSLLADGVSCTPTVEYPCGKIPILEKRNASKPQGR
T1 sequence 2: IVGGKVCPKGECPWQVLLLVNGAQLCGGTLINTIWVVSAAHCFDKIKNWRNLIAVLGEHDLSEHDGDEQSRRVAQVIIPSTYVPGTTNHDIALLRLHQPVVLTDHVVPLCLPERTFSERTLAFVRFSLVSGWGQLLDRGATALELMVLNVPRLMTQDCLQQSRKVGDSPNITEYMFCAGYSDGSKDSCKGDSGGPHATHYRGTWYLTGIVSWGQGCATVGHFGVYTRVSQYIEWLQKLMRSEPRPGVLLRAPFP

B1: VH SEQ ID NO 530 / VL SEQ ID NO 502 (antibody, IgG4, V domains shown)
VH: QVQLQESGPGLVEPSQTLSLTCTVSGYSISSDSAWSWIRQPPGKGLEWIGYIQYSGSTNYNPSLKSRVTISRDTSKNQFSLKLSSVTAADTAVYYCARSVNYYGNSFAVGYWGQGTLVTVSS
VL: EIVLTQSPATLSLSPGERATLSCRASQGVSDYLHWYQQKPGQAPRLLIKYTSQPATGIPARFSGSGSGTDFTLTISSLEPEDFAVYYCQNGHSFPLTFGQGTKLEIK
notes: humanized 11F2; IgG4 S228P/kappa
B2: VH SEQ ID NO 538 / VL SEQ ID NO 470 (antibody, IgG4, V domains shown)
VH: B1 VH with S30T, G45K
VL: B1 VL with T51A
notes: as for B1
B3: VH SEQ ID NO 538 / VL SEQ ID NO 350 (antibody, IgG4, V domains shown)
VH: B1 VH with S30T, G45K
VL: B1 VL with V29I, Q100A, I106L
notes: as for B1
B4: VH SEQ ID NO 546 / VL SEQ ID NO 310 (antibody, IgG4, V domains shown)
VH: B1 VH with S30T, G45K, L117S
VL: B1 VL with V29I, H34A, T51A
notes: as for B1
B5: VH SEQ ID NO 546 / VL SEQ ID NO 334 (antibody, IgG4, V domains shown)
VH: B1 VH with S30T, G45K, L117S
VL: B1 VL with V29I, T51A
notes: as for B1
B6: VH SEQ ID NO 546 / VL SEQ ID NO 406 (antibody, IgG4, V domains shown)
VH: B1 VH with S30T, G45K, L117S
VL: B1 VL with H34A, T51A, Q100A
notes: as for B1
B7: VH SEQ ID NO 538 / VL SEQ ID NO 366 (antibody, IgG4, V domains shown)
VH: B1 VH with S30T, G45K
VL: B1 VL with V29L, H34A, Q42E, T51A
notes: as for B1
B8: VH SEQ ID NO 538 / VL SEQ ID NO 342 (antibody, IgG4, V domains shown)
VH: B1 VH with S30T, G45K
VL: B1 VL with V29I, T69R, Q100A, I106L
notes: as for B1
B9: VH SEQ ID NO 538 / VL SEQ ID NO 454 (antibody, IgG4, V domains shown)
VH: B1 VH with S30T, G45K
VL: B1 VL with Q42E, T51A
notes: as for B1
B10: VH SEQ ID NO 546 / VL SEQ ID NO 398 (antibody, IgG4, V domains shown)
VH: B1 VH with S30T, G45K, L117S
VL: B1 VL with H34A, Q42E
notes: as for B1
B11: VH SEQ ID NO 538 / VL SEQ ID NO 414 (antibody, IgG4, V domains shown)
VH: B1 VH with S30T, G45K
VL: B1 VL with H34A, T51A
notes: as for B1
B12: VH SEQ ID NO 546 / VL SEQ ID NO 438 (antibody, IgG4, V domains shown)
VH: B1 VH with S30T, G45K, L117S
VL: B1 VL with H34A, T51A, F83V
notes: as for B1
B13: VH SEQ ID NO 538 / VL SEQ ID NO 446 (antibody, IgG4, V domains shown)
VH: B1 VH with S30T, G45K
VL: B1 VL with H34A
notes: as for B1
B14: VH SEQ ID NO 538 / VL SEQ ID NO 478 (antibody, IgG4, V domains shown)
VH: B1 VH with S30T, G45K
VL: B1 VL with T51A, N90Q
notes: as for B1
B15: VH SEQ ID NO 538 / VL SEQ ID NO 398 (antibody, IgG4, V domains shown)
VH: B1 VH with S30T, G45K
VL: B1 VL with H34A, Q42E
notes: as for B1
B16: VH SEQ ID NO 546 / VL SEQ ID NO 430 (antibody, IgG4, V domains shown)
VH: B1 VH with S30T, G45K, L117S
VL: B1 VL with H34A, T51A, A84G
notes: as for B1
B17: VH SEQ ID NO 546 / VL SEQ ID NO 358 (antibody, IgG4, V domains shown)
VH: B1 VH with S30T, G45K, L117S
VL: B1 VL with V29I
notes: as for B1
B18: VH SEQ ID NO 538 / VL SEQ ID NO 502 (antibody, IgG4, V domains shown)
VH: B1 VH with S30T, G45K
VL: B1 VL
notes: as for B1
B19: VH SEQ ID NO 538 / VL SEQ ID NO 334 (antibody, IgG4, V domains shown)
VH: B1 VH with S30T, G45K
VL: B1 VL with V29I, T51A
notes: as for B1
B20: VH SEQ ID NO 538 / VL SEQ ID NO 430 (antibody, IgG4, V domains shown)
VH: B1 VH with S30T, G45K
VL: B1 VL with H34A, T51A, A84G
notes: as for B1
B21: VH SEQ ID NO 538 / VL SEQ ID NO 438 (antibody, IgG4, V domains shown)
VH: B1 VH with S30T, G45K
VL: B1 VL with H34A, T51A, F83V
notes: as for B1
B22: VH SEQ ID NO 546 / VL SEQ ID NO 390 (antibody, IgG4, V domains shown)
VH: B1 VH with S30T, G45K, L117S
VL: B1 VL with H34A, Q42E, T51A
notes: as for B1
B23: VH SEQ ID NO 546 / VL SEQ ID NO 382 (antibody, IgG4, V domains shown)
VH: B1 VH with S30T, G45K, L117S
VL: B1 VL with V29L, Q42E, T51A
notes: as for B1
B24: VH SEQ ID NO 538 / VL SEQ ID NO 374 (antibody, IgG4, V domains shown)
VH: B1 VH with S30T, G45K
VL: B1 VL with V29L, H34A
notes: as for B1
B25: VH SEQ ID NO 538 / VL SEQ ID NO 486 (antibody, IgG4, V domains shown)
VH: B1 VH with S30T, G45K
VL: B1 VL with T51A, A84G
notes: as for B1
B26: VH SEQ ID NO 538 / VL SEQ ID NO 406 (antibody, IgG4, V domains shown)
VH: B1 VH with S30T, G45K
VL: B1 VL with H34A, T51A, Q100A
notes: as for B1
B27: VH SEQ ID NO 546 / VL SEQ ID NO 350 (antibody, IgG4, V domains shown)
VH: B1 VH with S30T, G45K, L117S
VL: B1 VL with V29I, Q100A, I106L
notes: as for B1
B28: VH SEQ ID NO 546 / VL SEQ ID NO 366 (antibody, IgG4, V domains shown)
VH: B1 VH with S30T, G45K, L117S
VL: B1 VL with V29L, H34A, Q42E, T51A
notes: as for B1
B29: VH SEQ ID NO 546 / VL SEQ ID NO 414 (antibody, IgG4, V domains shown)
VH: B1 VH with S30T, G45K, L117S
VL: B1 VL with H34A, T51A
notes: as for B1
B30: VH SEQ ID NO 546 / VL SEQ ID NO 342 (antibody, IgG4, V domains shown)
VH: B1 VH with S30T, G45K, L117S
VL: B1 VL with V29I, T69R, Q100A, I106L
notes: as for B1
B31: VH SEQ ID NO 538 / VL SEQ ID NO 310 (antibody, IgG4, V domains shown)
VH: B1 VH with S30T, G45K
VL: B1 VL with V29I, H34A, T51A
notes: as for B1
B32: VH SEQ ID NO 546 / VL SEQ ID NO 326 (antibody, IgG4, V domains shown)
VH: B1 VH with S30T, G45K, L117S
VL: B1 VL with V29I, Q42E, A84G, Q100A, I106L
notes: as for B1
B33: VH SEQ ID NO 538 / VL SEQ ID NO 358 (antibody, IgG4, V domains shown)
VH: B1 VH with S30T, G45K
VL: B1 VL with V29I
notes: as for B1
B34: VH SEQ ID NO 538 / VL SEQ ID NO 390 (antibody, IgG4, V domains shown)
VH: B1 VH with S30T, G45K
VL: B1 VL with H34A, Q42E, T51A
notes: as for B1
B35: VH SEQ ID NO 538 / VL SEQ ID NO 462 (antibody, IgG4, V domains shown)
VH: B1 VH with S30T, G45K
VL: B1 VL with T51A, Q100A
notes: as for B1
B36: VH SEQ ID NO 538 / VL SEQ ID NO 326 (antibody, IgG4, V domains shown)
VH: B1 VH with S30T, G45K
VL: B1 VL with V29I, Q42E, A84G, Q100A, I106L
notes: as for B1
B37: VH SEQ ID NO 538 / VL SEQ ID NO 318 (antibody, IgG4, V domains shown)
VH: B1 VH with S30T, G45K
VL: B1 VL with V29I, Q42E
notes: as for B1
B38: VH SEQ ID NO 546 / VL SEQ ID NO 422 (antibody, IgG4, V domains shown)
VH: B1 VH with S30T, G45K, L117S
VL: B1 VL with H34A, T51A, N90Q
notes: as for B1
B39: VH SEQ ID NO 538 / VL SEQ ID NO 422 (antibody, IgG4, V domains shown)
VH: B1 VH with S30T, G45K
VL: B1 VL with H34A, T51A, N90Q
notes: as for B1
B40: VH SEQ ID NO 538 / VL SEQ ID NO 494 (antibody, IgG4, V domains shown)
VH: B1 VH with S30T, G45K
VL: B1 VL with T51A, F83V
notes: as for B1
B41: VH SEQ ID NO 538 / VL SEQ ID NO 382 (antibody, IgG4, V domains shown)
VH: B1 VH with S30T, G45K
VL: B1 VL with V29L, Q42E, T51A
notes: as for B1
B42: VH SEQ ID NO 546 / VL SEQ ID NO 374 (antibody, IgG4, V domains shown)
VH: B1 VH with S30T, G45K, L117S
VL: B1 VL with V29L, H34A
notes: as for B1
B43: VH SEQ ID NO 546 / VL SEQ ID NO 318 (antibody, IgG4, V domains shown)
VH: B1 VH with S30T, G45K, L117S
VL: B1 VL with V29I, Q42E
notes: as for B1

What follows are binders tested against T1, recombinant human activated Factor VII … (assay: BLI (Fortebio)).
Protocol: All steps were performed in running buffer (20 mM HEPES buffer (pH 7.4), 150 mM NaCl, 5 mM CaCl2, 0.03% Tween 20, 1 mg/ml IgG-free BSA) at […] Antibodies were captured on anti-human tips (AHC, Fortebio) for 3 min at a concentration of 10 ug/ml. This was followed by a 3 min incubation to establish a baseline. Following this, association was monitored for 3 min using four different concentrations of VIIa (25 nm, 50 nM, 100 nM, and 200 nM), followed by a 3 mi dissociation. Sensorgrams were analysed using Fortebio data analysis software.

Row | Kd [nM] | Binder
1 | 0.94 | B1
2 | 1 | B2
3 | 1 | B3
4 | 3.2 | B4
5 | 1.1 | B5
6 | 6.7 | B6
7 | 6.2 | B7
8 | 1.2 | B8
9 | 1.2 | B9
10 | 11 | B10
11 | 6.9 | B11
12 | 8 | B12
13 | 12 | B13
14 | 1.8 | B14
15 | 11 | B15
16 | 8.1 | B16
17 | 0.99 | B17
18 | 0.88 | B18
19 | 0.97 | B19
20 | 8.3 | B20
21 | 8.3 | B21
22 | 7 | B22

Row | Kd [nM] | Binder
23 | 1.3 | B23
24 | 7.4 | B24
25 | 1 | B25
26 | 6.1 | B26
27 | 0.96 | B27
28 | 5.7 | B28
29 | 7.1 | B29
30 | 1.2 | B30
31 | 2.5 | B31
32 | 0.81 | B32
33 | 0.89 | B33
34 | 7 | B34
35 | 1.3 | B35
36 | 0.58 | B36
37 | 0.64 | B37
38 | 24 | B38
39 | 21 | B39
40 | 1.1 | B40
41 | 1.2 | B41
42 | 6.8 | B42
43 | 0.86 | B43
